In the nanobody polyreactivity screen of Harvey et al. (2022):

Assay: yeast display, Sf9 membrane polyspecificity reagent, FACS + sequencing; frameworks hold sequencing errors
Method in brief: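 Using colony PCR, genes from sorted yeast display clones were amplified, then sequenced on MiSeq at 2 × 250 and filtered by CDR length. The clones had been stained with 10% biotinylated, detergent-solubilized Sf9 membrane reagent for 1 hour at 4 °C and sorted by FACS into low and high (top ~1%) gates on anti-HA and streptavidin fluorescence. Polyreactivity labels come from the gate of origin.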

| Sequence | polyreactivity (PSR sort gate) |
| --- | --- |
| QVQLVESAGGLVQAGGSLRLSCAASGSTFTYYAMGWSRQAPGKESELVAAISSGASTYYADSVKGRFTFSRDNAKNTVYLQMNSLKPEDTAVYYCNAKKSIRPYRTGMDYWGQGTQVTVSS | high polyreactivity |
| QVQLVESAGGLVQAGGSLRLSCAASGSTFVWYAMGGYRQAPGKERELVDAINFGGTTYYADSVKGRFRISRYNAKNTVYLQLNSLKPEDTAVYYCATEYDYGSWFPDGWGIFDYWGQGTQVTVSS | low polyreactivity |
| QVQLVESAGGLVQAGGSLRLSCAASGYIYGYYVMGWNRQAPGKERELVAAISGRGGRTYYADSVKGRFTISRDNAKNTVYLQMNSLKPEDTAVYYCAAADLPGTMYYWGQGTQVTVSS | high polyreactivity |
| QVQLVESAGGLVQAGGSLRLSCAASRSIYGYYAMGWYRQEPGKERELVAAIRRSGGSTYYADSVKGRFTISRDNAKNTVYLHMNSLKPEDTAVYYCAARVSPYRGFYYWGLGTQVTVSS | high polyreactivity |
| QVQLVESAGGLVQAGGSLRLSCAATGFIFWGNAMGWDRQAPGKERELVAGIRSLGGTTSYADSVKGRFTISRDNAKNTVYLQMNSLKPEDTAVYYCAAKYSYYTYAGDGGLFSWSYGYWGQGTQVTVSS | low polyreactivity |
| QVQLVESAGGLVQAGGSLRLSCAPSGRIFPVNSMGSYRQAPGKERELVATMSSGDITNYADSVKGRFTISRDNATITVYLQMNCLKPEDNAVYYCARDSKRLARYYYWGQGTQVTVSS | low polyreactivity |
| QVQLVESAGGLVQAGGSLRLSCDASGLTYSYYAMGWYIQAPGKERELVAAISWSGGSTYYADSVNGRFTISRDNAKNTVYLQMNSLKPEDTAVYYCAKYPNRHYWYDYWGQGTQVTVSS | low polyreactivity |
| QVQLVESAGGLVQAGGSLRLSCSAYGIIFSRYAMGWYRQAHGKERELVAAITSGGSTSYADSVKGRFTISRDNAKNTVYLQMNSLKPADTAVYYCAAQFFYRKSGTWAVYRYNYWGQGTQVTVSS | high polyreactivity |
| QVQLVESAGGLVQAGGSLRLSSAASGLIFPLYEMGWYRQAPGKERELVAAINWRGGSTYYADSVKGRFTISRDNAKNTVYLQMNSLKPEDTAVYYCAAGYLHRDSYIYDYWGQGTQVTVSS | low polyreactivity |
| QVQLVESAGGLVQAGGSLRLSSGASGSTFNTYAMGWYRQAPGKERELVAAITYNGGSTYYADSVKGRFTISRDNAKNTVYLQMNSLKPEDTAVYYCAAPRSRSRTSRFEYWGQGTQVTVSS | high polyreactivity |
| QVQLVESAGGLVQAGGSLRLTCAASGRTFHHNAMGWYRQPPGKERELFAAITSVGNTYADSVKGRFTISRDNAKNTVYLLMNSMKPEDTAVYYCNARIYDSRFYWSPATSRFEYWGQGTQVTLSS | low polyreactivity |
| QVQLVESAGGLVQAGGSLSLSCAASGSIFIWYAMGWDRQAPGKERELVAAIRSGGSTYYADSVKGRFTISRDNAKNTVYLQMNSLKPEYTAVYYCAKVLTWRGYRYNYWGQGTQVTVSS | low polyreactivity |
| QVQLVESAGGLVQAGGSLSLSCAASGSILSRYAMGWYRQAPGKERELVAAINWSGSSTYYADSVKGRFTISRDNAKNTVYLQMNSLKPEDTAVYYCAKLYVTPRRLPYDYWGQGTQVPVSS | high polyreactivity |
| QVQLVESAGGLVQAGGSLSLSCAASGSMFNKYAMGWYRQAPGKERELVAAISVSGTRTYYADSVKGRFTISRDNAKNTVYLQMNSLKPEDTAVYYCATKFFRTAYEYWGQGTQVTVSS | high polyreactivity |
| QVQLVESAGGLVQAGGSLSLSCDASGNTFLGYAMGWYRQAPGKERELVAAISKRGGSTYYADSVKGRFTISRDNAKNTVYLQMNSLQPEDTAVYYCNAVPPRDNGSWGQGTQVTVSS | high polyreactivity |
| QVQLVESAGGLVQAGGSVRLSCAASGRIFGSYAMGWYRQAAGKERELVAAINWRGGSTFYADSVKGRFTISRDNAKNTVYLQMNSLKPEDTAVYYSARRGYLQSGDYWGHGTQVTVSS | low polyreactivity |
| QVQLVESAGGLVQAGGTLRLSCDASGFIIYYYAMGWYRQAPGKERELVAAISRGGSTYYADSVKGRFTISRDNAKNTGYLQMISLKPEDTAVYYCASEDFPVYSYYYWGQGSQVTVSS | high polyreactivity |
| QVQLVESAGGLVQEGGSLRLSCAASVIFWANVMGWYRQAPGKEWELVDAITSGGSTNYADSVKGRFTISRDNAKNTVYLQMNSLKPEDTAVYYCIKPWYSYRYGGVGYGYWGQGTQVTVSS | low polyreactivity |
| QVQLVESAGRLVQAGGSLRLSCAASGSTYSSNAMGGYRQEPGKERELVAAITTSGGSTYYADSVKGRFTISRDNAKNTVYLQMNSLIPADTAVYYCAADLVHAYQWSIFLYGYWGLGTQVTVSS | low polyreactivity |
| QVQLVESARGIVQAGGSLRLSSAASGFIFYSSAMGGYRQAPGYERELVAGITSGGITSYADSVKGRFTISRDNAKNTVYLQMNSLKPEYTAVYYCAAVVVYQNYNYYYWGQGTQVTVSS | high polyreactivity |
| QVQLVESAVCLVQAGVSLRLSCAASGIIFDYNAMGWYRQAPGKDREVVAAITSTDNTNYADSVKGRFTISRDNAKNTVYLQMNSLKPEDTAVYYCNTDYWLSVVYAMDYWGQGTQVTVSS | low polyreactivity |
| QVQLVESCGGIDQAGGSLRLTCAATGRIFNSYPMGWYRQAPGKERELVAAISRNGGITYYADSVKARFTISRDNAKITVYLQMNILKQEDTAVYYCNADSSRRLYSSEYWGEGTQVTVSS | high polyreactivity |

| Sequence | polyreactivity (PSR sort gate) |
| --- | --- |
| QVQLVESCGGLVHAGGSLRLSCAATGFTIAENVKGWYRQSPGKERELVAAIDYSDGITYYADSVKGRFTISRDNAKNTVYLQMNSLKPEDTAVYYCATQYLIQTKDYSWGQGTQVTVSS | high polyreactivity |
| QVQLVESCGGLVQAGCSLRLSCAASGSIVAWYTMGWYRQAPGKERELVAGITASGGSTYYADSVKGRFTISRDNAKNTVYLQMNILKPEDTAVYYCAATNPFRYRRGGYWGQGTQVTVSS | high polyreactivity |
| QVQLVESCGGLVQAGGSIRLRCAATGSIIYVNPMGWYRQAPWKEREMVAAITGGASTNYADSVKGRFTISRDNAKNTVYLQMNLLKPEDTAVYYCAVDPVGHATRVWTYQYDYWGQGNQVTVSS | low polyreactivity |
| QVQLVESCGGLVQAGGSLRLSCAASGFIFQPYAMGWYRQAPGTERELVAAITSRGGRTYYADSVKGRFTISRDNAKNTVYLQMNSLKPEDTAVYSCNAVIYACEYYYWGQGTQVTVSS | low polyreactivity |
| QVQLVESCGGLVQAGGSLRLSCAASGGIFGYYAMGWYRQAPGKEREFVAAITLSGGRSYYADSVKGRFTISRDNAKNTVYLQMNSLKPEDTAVYYCNAYPYYLVRNMDSWGQGTQVTVSS | high polyreactivity |
| QVQLVESCGGLVQAGGSLRLSCAASGRTFRDNAMGWYRQAPGKERELVAAIDIDSSTYYADSVEGRFTISRDNAKNTVYLQMNSLKPEDTAVYYCAAESYHDGKGFPDYEYWGQGTQVTVSS | low polyreactivity |
| QVQLVESCGGLVQAGGSLRLSCAASGSIFPPYAMGWYRQAPGKERELVATITIRGGSTYYADSVKGRFTISRDNAKNTVYLQMNSLKPEDTAVYYCAADYTKYYRRYYYWGQGTQVTVSS | high polyreactivity |
| QVQLVESCGGLVQAGGSLRLSCAASGSIFYGNVMGWYRQAPGKERELVAAISSSGGSTYYADSVKGRFTISRDNEKNTVYLQMNRLKPEDSAVYYCAAYWWSRVVRGSRYDYWGQGTHVTVSS | low polyreactivity |
| QVQLVESCGGLVQAGGSLRLSCAASGSTFAVNVMGWYRQAPGKERELDATITYRDGRTYYADSVKGRFTISRDNAKNTVYVQMNSLKPEVTALYYCAADWYTTYDYWGQGTQVTVSS | low polyreactivity |
| QVQLVESCGGLVQAGGSLRLSCAASGSTFDGYAMGWYRQAPVKERELVAAISASGGSTYYADSVKGRFTISRDNAKNTVYLQMNSLKPEDTAVYYCNSEPFDLWAFYYCYVYGYYHWGQGTQVTVSS | high polyreactivity |
| QVQLVESCGGLVQAGGSLRLSCAASGSTFTIYAMGWYRQAPGKERELVAVISSSGGSTYYADSVKGRFTISRDNAKNTVYLQMNSLKPEDTAVYYCAADTRYFGGYLTLYYWGQGTQVTVSS | low polyreactivity |
| QVQLVESCGGLVQAGGSLRLSCAASGSTFTVNAMGGYRQAPGKERELVAAINWSGGSTYYADSVKGRFTISRDNAKNTVYFQMNSLKPEDTAVYYCNKDREPYGYWSFDYWGQGSQVTVSS | low polyreactivity |
| QVQLVESCGGLVQAGGSLRLSCAASGSTFVHNAMGWNRQAPGKESELVAAITSRTGITYYADSLKGRFTISRDNAKNTFYLEMNSLKPEDTSVFYCAKRHVRTHRLQFDYWGQGTQVTVSS | high polyreactivity |
| QVQLVESCGGLVQAGGSLRLSCADYGRTFGKYAMGWYRQSPGKERELVAAITYRGGTTYYEDSVKGRFTISRDNAKNTLYLQMNSLKPEDTAVYYCATAPGRRYDWGQGTQVTVSS | high polyreactivity |
| QVQLVESCGGLVQAGGSLRLSCASSGRTIDSKAMGWYRQAPGKERELVAAISWSGGSTYYADSVKGRFTISRDNAKNTVYLQMNSLKPEDTAVYYCNRLGRHAPATRYGYWGQGTQVTVSS | high polyreactivity |
| QVQLVESCGGLVQTGGSLRLICAASRSNFDYYAMGWYRQAPWKETELVATNSYDFSTSYADSVKVLFTISRDNAKNTVFLQMKSLKPVDTAVYYCATDAGLYLEDAYEGPEQEFDYWGQGTQVTVSS | low polyreactivity |
| QVQLVESFGGLVQAGGSLRLICAGSGLTCYVYAMGWSRPAPGKERELVAAISQRGGSTYYADSVKGRFTISRDKAKNTVYLQMNSLKPEDTAVYYCAKYTVQYAFSHYDYWGQGTQVTVSS | high polyreactivity |
| QVQLVESGAALVQAGGSLRLSCAASASTYVSYAMGWSRQAPGKEREFVAAITWRGDSTYYADSVKGRFTISRDNAKNTVYFQMNSLKPEDTAVDYCAADGRSWRYYSPYYYWGQGTQVTVSS | low polyreactivity |
| QVQLVESGACLVQAGGSLRLSCAASGSIFGFYAMGWYRQAPGQERELVAGISYGDSSTYYADSVKGRFTISRDNAKNTVYLQMNSLKPEDTAVYYCAAGHRQKYNWGRYDYWGQGTQVTVSS | low polyreactivity |
| QVQLVESGAGFVQAGGSLRLTCAASGRNLSWYAMGWYRQAPGKEREYVAAITSSGASTYYADSVKGRFTISRDNAKNTVYLQMNSLKPEDTAVYYSNAAWRRVWFNYWGQGTQVTVSS | high polyreactivity |
| QVQLVESGAGIVQAGGSLRLSCAASGLTFANYVMGGYRQAPGKERELVAAISRSGGSTYYADSVKGRFTISRDNAKKTVNLQMNCLKPEDTAVYYCAAAAWDPKGSRYDSWGQGTQVSVSS | low polyreactivity |
